# According to article PMC10572602, “Molecular Mechanism of STIL Coiled-Coil Domain Oligomerization” (International Journal of Molecular Sciences, 2023):
# Changes are numbered by the printed parent chain. Names and notes keep the numbering of the source. No end group written: not given here.
# B1: STIL CCD_(718–749) WT (peptide)
# peptide: LSPDAYRFLTEQDRQLRLLQAQIQRLLEAQSL-NH2
# notes: STIL (SCL/TAL1 Interrupting Locus) coiled-coil domain, residues 718-749; 32-residue peptide, unlabelled; also called WT STIL CCD peptide; WT CCD; source: synthetic peptide (Fmoc-SPPS on rink amide, RP-HPLC purified)
# B2: full-length L736E mutant: full-length STIL protein with L736E mutation (protein, UniProt Q15468 1-1287, looked up, variant L736E)
# chain: MEPIYPFARPQMNTRFPSSRMVPFHFPPSKCALWNPTPTGDFIYLHLSYYRNPKLVVTEKTIRLAYRHAKQNKKNSSCFLLGSLTADEDEEGVTLTVDRFDPGREVPECLEITPTASLPGDFLIPCKVHTQELCSREMIVHSVDDFSSALKALQCHICSKDSLDCGKLLSLRVHITSRESLDSVEFDLHWAAVTLANNFKCTPVKPIPIIPTALARNLSSNLNISQVQGTYKYGYLTMDETRKLLLLLESDPKVYSLPLVGIWLSGITHIYSPQVWACCLRYIFNSSVQERVFSESGNFIIVLYSMTHKEPEFYECFPCDGKIPDFRFQLLTSKETLHLFKNVEPPDKNPIRCELSAESQNAETEFFSKASKNFSIKRSSQKLSSGKMPIHDHDSGVEDEDFSPRPIPSPHPVSQKISKIQPSVPELSLVLDGNFIESNPLPTPLEMVNNENPPLINHLEHLKPLQPQLYDEKHSPEVEAGEPSLRGIPNQLNQDKPALLRHCKVRQPPAYKKGNPHTRNSIKPSSHNGPSHDIFEKLQTVSAGNVQNEEYPIRPSTLNSRQSSLAPQSQPHDFVFSPHNSGRPMELQIPTPPLPSYCSTNVCRCCQHHSHIQYSPLNSWQGANTVGSIQDVQSEALQKHSLFHPSGCPALYCNAFCSSSSPIALRPQGDMGSCSPHSNIEPSPVARPPSHMDLCNPQPCTVCMHTPKTESDNGMMGLSPDAYRFLTEQDRQLRLEQAQIQRLLEAQSLMPCSPKTTAVEDTVQAGRQMELVSVEAQSSPGLHMRKGVSIAVSTGASLFWNAAGEDQEPDSQMKQDDTKISSEDMNFSVDINNEVTSLPGSASSLKAVDIPSFEESNIAVEEEFNQPLSVSNSSLVVRKEPDVPVFFPSGQLAESVSMCLQTGPTGGASNNSETSEEPKIEHVMQPLLHQPSDNQKIYQDLLGQVNHLLNSSSKETEQPSTKAVIISHECTRTQNVYHTKKKTHHSRLVDKDCVLNATLKQLRSLGVKIDSPTKVKKNAHNVDHASVLACISPEAVISGLNCMSFANVGMSGLSPNGVDLSMEANAIALKYLNENQLSQLSVTRSNQNNCDPFSLLHINTDRSTVGLSLISPNNMSFATKKYMKRYGLLQSSDNSEDEEEPPDNADSKSEYLLNQNLRSIPEQLGGQKEPSKNDHEIINCSNCESVGTNADTPVLRNITNEVLQTKAKQQLTEKPAFLVKNLKPSPAVNLRTGKAEFTQHPEKENEGDITIFPESLQPSETLKQMNSMNSVGTFLDVKRLRQLPKLF
# modifications: full-length
# notes: full-length STIL protein with L736E mutation
# B3: WT STIL: full-length wild-type STIL protein (protein, UniProt Q15468 1-1287, looked up)
# chain: B2 chain with E736L
# modifications: full-length
# notes: full-length wild-type STIL protein
# How the values were obtained:
# STIL CCD_(718–749) L736E = assay: crystal structure; L736E crystallized at 0.9 mM peptide, 50 mM Tris pH 8.0, 10% v/v MPD, 4 °C; 1.67 Å
# [1] = target: PLK4 884-970 (Homo sapiens) (UniProt O00444); assay: ITC; details: cited from earlier work
# Sequence of PLK4 884-970 (Homo sapiens) (O00444 884-970): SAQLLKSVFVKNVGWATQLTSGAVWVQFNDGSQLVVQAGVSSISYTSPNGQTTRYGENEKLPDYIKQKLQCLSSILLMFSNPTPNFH
# [2] = target: the molecule itself; assay: AUC; sedimentation velocity, 12.5 µM peptide, c(s) distribution; 20 °C, 25 mM sodium phosphate pH 6.8, ionic strength 154 mM (NaCl)
# [3] = target: the molecule itself; assay: AUC; sedimentation velocity, 75 µM peptide, c(s) distribution; 20 °C, 25 mM sodium phosphate pH 6.8, ionic strength 154 mM (NaCl)
# [4] = target: the molecule itself; assay: AUC; sedimentation velocity, 10 µM peptide, c(s) distribution; 20 °C, 25 mM sodium phosphate pH 6.8, ionic strength 154 mM (NaCl)
# [5] = target: the molecule itself; assay: AUC; sedimentation equilibrium, starting concentrations 5, 10 and 20 µM, unlabelled peptide, no DMSO; 20 °C, sodium phosphate pH 6.8 with NaCl; fitted to a single ideal species (N) and, for the WT, to a dimer-tetramer model (apparent KD: tetramer to dimers)
# [6] = target: T1, STIL CCD peptide with a different fluorophore (fluorescence polarization) (a fluorophore other than the coumarin, not named, position not stated; C-terminal amide); assay: fluorescence polarisation; same STIL CCD peptide with a different fluorophore; Hill fit; dimer to monomers; details: both partners purified
# T1 construct: STIL coiled-coil domain, residues 718-749; also called same STIL CCD peptide and different fluorophore; source: synthetic peptide
# T1 peptide: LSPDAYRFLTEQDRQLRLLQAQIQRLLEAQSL
# [7] = target: the molecule itself; assay: AUC; sedimentation velocity, 500 µM peptide, c(s) distribution; 20 °C, 25 mM sodium phosphate pH 6.8, ionic strength 154 mM (NaCl)
# [8] = target: T2, WT STIL CCD peptide labelled with 7-(Diethylamino)coumarin-3-carboxylic acid (7-(Diethylamino)coumarin-3-carboxylic acid on the N-terminus; C-terminal amide); assay: other fluorescence titration; fluorescence read on a Monolith NT.115 (micro-scale thermophoresis instrument); 5 µM coumarin-labelled peptide with unlabelled peptide 9 nM to 300 µM; 25 mM sodium phosphate pH 6.8, ionic strength 154 mM (NaCl), 5% DMSO, room temperature (24 °C); Hill fit; apparent; taken by the paper as dimer to monomers; details: both partners purified
# T2 construct: STIL coiled-coil domain, residues 718-749; also called labeled-WT CCD; fluorophore-labelled peptide; source: synthetic peptide (Fmoc-SPPS, fluorophore coupled on the resin, RP-HPLC purified)
# T2 peptide: T1 peptide
# [9] = target: the molecule itself; assay: AUC; sedimentation equilibrium, starting concentrations 5, 10 and 20 µM, unlabelled peptide, no DMSO; 20 °C, sodium phosphate pH 6.8 with NaCl; fitted to a single ideal species (N) and, for the WT, to a dimer-tetramer model (apparent KD: tetramer to dimers); remark: listed apart in the source
# [10] = tested on: Stil−/− mouse embryonic fibroblasts; details: full-length STIL expressed in Stil−/− mouse embryonic fibroblasts; ref [14]; cited from earlier work
# Text: Presumably, this is due to the disruption of the hydrophobic CC interactions upon mutation from the hydrophobic Leu to the charged Glu. […] Other ...
molecule,measurement,setting,value
STIL CCD_(718–749) L736E (peptide),stoichiometry N,STIL CCD_(718–749) L736E,2
STIL CCD (from UniProt Q15468),Kd,[1],0.28 µM
B1,stoichiometry N,[2],2 × monomer mass
same,stoichiometry N,[3],3.27 × monomer mass
same,stoichiometry N,[4],1.7
same,stoichiometry N,[5],2.9 ± 0.04
same,Kd,[6],8.5 ± 0.4 µM
same,stoichiometry N,[7],3.4 × monomer mass
same,Kd,[8],8 ± 2 µM
same,Kd,[9],68 ± 2 µM
B2,formation of centrosomes and cilia (in words),[10],completely disrupts the formation of centrosomes and cilia
B3,formation of centrosomes and cilia (in words),[10],rescues this phenotype
